Measured values reported in patent publication US11160869B2 (priority 2019, dated 2021).

Key:
[1] = test system: growth factors, chemokines and cytokines; type: in vivo, mice
STAT3 = STAT3 phosphorylation in J774.2 macrophage cells
ulcerative colitis = assay: Phase 1b multiple ascending dose in patients with active ulcerative colitis; type: in vivo, human; conditions: for placebo-adjusted mean reduction of FCP: baseline FCP >150 μg/g
Procedure: Data was gathered on the safety, tolerability, pharmacokinetics, pharmacodynamics, and initial clinical response following a multiple ascending dose (MAD) of the IL-10 delivery construct in adult patients with active UC over 14 days of treatment. […] A coating with a weight ratio of 50:50 of Eudragit® L30D55: Eudragit® FS30D was applied with a thickness of 14.8 to 16.0 mg/cm^2 and a weight of approximately 76 mg to each capsule. Placebo capsules were generated using similarly coated empty capsules.
A total of four cohorts were dosed with either 1 mg, 3 mg, 10, mg or 30 mg of the IL-10 delivery construct, randomized 3:1 to receive the IL-10 delivery construct or a placebo administered once daily for fourteen days. The goal of the trial was to assess the safety of the IL-10 delivery construct and any change in UC disease activity, through endoscopy, histology, biomarkers, and serum samples. Stool samples and colonic biopsies were obtained at baseline and day 14 of treatment to assess fecal calprotectin as well as histology based upon blinded central read of the Geboes scoring system. Fecal calprotectin is an objective marker of clinical response in UC studies and the Geboes scoring system is a measure of histological response. The Geboes scoring system of this example used a 0-22 point histologic scoring system in which higher scores represent more severe disease.

IL-10RA and IL-10RB = target: T1, IL-10RA and IL-10RB (Homo sapiens, UniProt Q08334+Q13651); assay: IL-10 receptor dimerization luminescence assay in engineered U2OS cells; conditions: read-out: EC50, IL-10R dimerization; 6 h
T1 sequence (Q13651 22-578): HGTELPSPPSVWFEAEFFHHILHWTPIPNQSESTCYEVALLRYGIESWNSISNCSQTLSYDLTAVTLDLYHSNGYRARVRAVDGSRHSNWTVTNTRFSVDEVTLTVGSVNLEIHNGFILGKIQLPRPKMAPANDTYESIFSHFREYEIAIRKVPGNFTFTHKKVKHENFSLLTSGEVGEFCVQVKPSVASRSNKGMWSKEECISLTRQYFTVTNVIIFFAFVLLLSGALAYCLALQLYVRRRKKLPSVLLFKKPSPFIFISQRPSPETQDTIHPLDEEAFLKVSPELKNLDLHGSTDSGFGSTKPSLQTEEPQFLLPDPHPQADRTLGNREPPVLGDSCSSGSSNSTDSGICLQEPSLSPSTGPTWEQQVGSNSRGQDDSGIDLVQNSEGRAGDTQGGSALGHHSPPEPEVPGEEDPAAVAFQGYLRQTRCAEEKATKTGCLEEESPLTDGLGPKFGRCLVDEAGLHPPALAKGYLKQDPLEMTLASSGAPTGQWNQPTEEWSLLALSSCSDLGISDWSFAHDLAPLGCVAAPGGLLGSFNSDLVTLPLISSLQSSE
T1 sequence (Q08334 20-325): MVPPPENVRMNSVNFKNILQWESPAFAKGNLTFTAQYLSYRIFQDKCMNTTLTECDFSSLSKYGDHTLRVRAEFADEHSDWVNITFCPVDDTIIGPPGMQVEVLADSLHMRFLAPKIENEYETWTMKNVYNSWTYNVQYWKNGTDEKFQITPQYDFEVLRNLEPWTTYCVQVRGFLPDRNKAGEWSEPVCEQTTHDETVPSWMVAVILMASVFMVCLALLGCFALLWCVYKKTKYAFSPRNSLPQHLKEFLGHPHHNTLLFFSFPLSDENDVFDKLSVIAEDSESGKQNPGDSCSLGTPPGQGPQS

[2] = Compression force screening, tablet properties and dimer recovery on dissolution; type: physicochemical; conditions: F1 and F2 tablets
Procedure: Various compression forces were used to create F1 tablets (TABLE 31) and F2 tablets (TABLE 32). Dimer purity of the target construct was also examined following compaction into a tablet. […] Dimer recovery was also assessed following dissolution of various tablets at pH 7.0 (FIGS. 20A-20D).
An additional tablet (F3) was created, which was similar to an F1 tablet but with glyceryl dibehenate in place of magnesium stearate (TABLE 33). This substitution was made due to incompatibility of magnesium stearate in dissolution of target constructs in solution.

[3] = 1 mg once daily for 14 days, n = 3 UC patients
[4] = 3 mg once daily for 14 days, n = 3 UC patients
[5] = 10 mg once daily for 14 days, n = 3 UC patients
[6] = 30 mg once daily for 14 days, n = 3 UC patients

B1: IL-10 delivery construct: recombinant homodimeric fusion protein: N-terminal methionine, cholix386 domain, polyGlySer spacer, recombinant human IL-10 (protein)
chain: MVEEALNIFDECRSPCSLTPEPGKPIQSKLSIPSDVVLDEGVLYYSMTINDEQNDIKDEDKGESIITIGEFATVRATRHYVNQDAPFGVIHLDITTENGTKTYSYNRKEGEFAINWLVPIGEDSPASIKISVDELDQQRNIIEVPKLYSIDLDNQTLEQWKTQGNVSFSVTRPEHNIAISWPSVSYKAAQKEGSRHKRWAHWHTGLALCWLVPMDAIYNYITQQNCTLGDNWFGGSYETVAGTPKVITVKQGIEQKPVEQRIHFSKGNAMSALAAHRVCGVPLETLARSRKPRDLTDDLSCAYQAQNIVSLFVATRILFSHLDSVFTLNLDEQEPEVAERLSDLRRINENNPGMVTQVLTVARQIYNDYVTHHPGLTPEQTSAGAQAGGGGSGGGGSGGGGSPGQGTQSENSCTHFPGNLPNMLRDLRDAFSRVKTFFQMKDQLDNLLLKESLLEDFKGYLGCQALSEMIQFYLEEVMPQAENQDPDIKAHVNSLGENLKTLRLRLRRCHRFLPCENKSKAVEQVKNAFNKLQEKGIYKAMSEFDIFINYIEAYMTMKIRN
modifications: homodimer
- plasma TGF-β relative to Vehicle ([1]; 3.0 mg/kg): reduced
- production of IL-12 and IL-17 ([1]; 9.0 mg/kg): prevented
- plasma MCSF ([1]; highest dose (9 mg/kg)): reduced
- oxazolone-induced changes in LIX, LIF, IP10 ([1]; mouse, in vivo): mitigated
- plasma IL-3, IL-4 (9.0 mg/kg), IL-28 (3.0 and 9.0 mg/kg), IL-31 (0.3 mg/kg) ([1]; mouse, in vivo): to near-base line levels
- plasma MIP1α ([1]; mouse, in vivo): trend towards a reduction
- oxazolone-induced increase in plasma GCSF/CSF3 ([1]; prophylactic pre-treatment): attenuated
- plasma IL-13 and IL-15 ([1]; vs Vehicle): trend towards an IL-10 delivery construct-mediated decrease
- amplitude of pSTAT3/total STAT3 (STAT3): ~1.47%
- EC50 (STAT3; read-out: EC50, phosphorylation of STAT3, 20 min stimulation): 0.264 nM
- # of TEASs (ulcerative colitis; [3]): 2
- TEASs (% pts) (ulcerative colitis; [3]): 67%
- placebo-adjusted mean reduction of FCP (ulcerative colitis; 1 mg, 14 days): 44%
- # of TEASs (ulcerative colitis; [4]): 7
- TEASs (% pts) (ulcerative colitis; [4]): 67%
- placebo-adjusted mean reduction of FCP (ulcerative colitis; 3 mg, 14 days): 27%
- FCP activity at higher doses (ulcerative colitis; 10 mg and 30 mg): diminution of activity at higher doses
- # of TEASs (ulcerative colitis; [5]): 5
- TEASs (% pts) (ulcerative colitis; [5]): 67%
- Geboes score of one UC patient (22 point scale) (ulcerative colitis; 10 mg, pre-dose to 14 days): improved from a score of 15 to a score of three
- # of TEASs (ulcerative colitis; [6]): 6
- TEASs (% pts) (ulcerative colitis; [6]): 67%
- tolerability in patients with UC (ulcerative colitis; 1, 3, 10, 30 mg once daily 14 days): well tolerated
- CRP levels compared to placebo (ulcerative colitis; 1 and 3 mgs, baseline CRP greater than 5 mg/L): greater reductions in CRP levels
- TEAEs in the 12 active patients (ulcerative colitis; 14 days): 20
- patients with reduced Geboes scores (ulcerative colitis; 14 days, (6/10) active patients): 60%
- # of TEASs (ulcerative colitis; All Active, n = 12 UC patients): 20
- TEASs (% pts) (ulcerative colitis; All Active, n = 12 UC patients): 67%
- detection in systemic circulation (ulcerative colitis; human, in vivo): not detected in systemic circulation
- treatment emergent AEs of anemia or thrombocytopenia (ulcerative colitis; human, in vivo): no treatment emergent AEs of anemia or thrombocytopenia were observed
- EC50 (IL-10RA and IL-10RB): 0.971 nM
- robustness of dimer to compaction into tablet [2]: robust to compaction and granulation, although some aggregation was observed in final tablet form
